Measurements from publication PMC4192513 (2014).
One block for each binder: values may come before it.

What was measured:
Snu17p (residues 1-113) [1] = biological target: T1, Snu17p (residues 1-113) (S. cerevisiae, UniProt P40565 1-113); assay: ITC; first site (KD1)
T1 chain: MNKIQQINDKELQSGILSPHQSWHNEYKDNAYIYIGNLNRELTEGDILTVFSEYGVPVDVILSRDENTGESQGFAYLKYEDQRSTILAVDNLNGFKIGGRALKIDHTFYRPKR

Snu17p (residues 1-113) [2] = biological target: T1, Snu17p (residues 1-113); assay: ITC; second site (KD2)
Snu17p (residues 1-113) [3] = biological target: T1, Snu17p (residues 1-113); assay: ITC

Kd (Snu17p (residues 1-113) [1]): 6.3 nM
Kd (Snu17p (residues 1-113) [2]): 234 nM
B1: Bud13p (residues 201-266) (domain or fragment)
chain: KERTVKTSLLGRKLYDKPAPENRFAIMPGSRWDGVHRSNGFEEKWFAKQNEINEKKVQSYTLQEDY

Kd (Snu17p (residues 1-113) [3]): ~60000 nM
Binder: AIMPGSRWDGVHRS [Bud13p peptide (residues 225-238)]

Kd (Snu17p (residues 1-113) [3]): 253 nM
Binder: ENRFAIMPGSRWDGVHRSNGFE [Bud13p peptide (residues 221-242)]
